# Assay results: patent publication US20220175942A1
# T1: CCL5_HUMAN (human), P13501
# T1 chain: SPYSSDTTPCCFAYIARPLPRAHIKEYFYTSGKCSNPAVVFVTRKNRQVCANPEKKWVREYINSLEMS
# T2: CX3CL1_HUMAN (human), P78423
# T2 chain: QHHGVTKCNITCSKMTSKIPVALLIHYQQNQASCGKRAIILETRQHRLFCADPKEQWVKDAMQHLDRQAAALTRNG
# T3: CCL19_HUMAN (human), Q99731
# T3 chain: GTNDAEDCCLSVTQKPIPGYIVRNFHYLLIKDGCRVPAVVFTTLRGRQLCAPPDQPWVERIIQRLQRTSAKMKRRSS
# Assays:
# [1] = target: T1, CCL5_HUMAN (human), P13501; assay: BLI; conditions: other; chains chain; remark: other sources report otherwise
# [2] = target: CXCL8_HUMAN (human), P10145; assay: microscale thermophoresis, AlexaFluor 647 labelled chemokine; conditions: remark: other sources report otherwise
# Sequence of CXCL8_HUMAN (human), P10145 (P10145 28-99 limits assumed): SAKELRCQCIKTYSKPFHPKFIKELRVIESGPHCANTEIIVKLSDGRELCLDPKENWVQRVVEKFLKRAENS
# [3] = target: T2, CX3CL1_HUMAN (human), P78423; assay: as above; conditions: remark: other sources report otherwise
# [4] = target: CXCL12_HUMAN (human), P48061; assay: as above; conditions: remark: other sources report otherwise
# Sequence of CXCL12_HUMAN (human), P48061 (P48061 22-89 limits assumed): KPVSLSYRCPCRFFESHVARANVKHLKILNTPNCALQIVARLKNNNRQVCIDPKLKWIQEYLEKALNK
# [5] = target: CCL20_HUMAN (human), P78556; assay: as above; conditions: remark: other sources report otherwise
# Sequence of CCL20_HUMAN (human), P78556 (P78556 27-96 limits assumed): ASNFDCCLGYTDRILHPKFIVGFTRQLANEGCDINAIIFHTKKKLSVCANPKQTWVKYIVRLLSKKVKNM
# [6] = target: T1, CCL5_HUMAN (human), P13501; assay: as above; conditions: remark: other sources report otherwise
# [7] = target: T3, CCL19_HUMAN (human), Q99731; assay: as above; conditions: remark: other sources report otherwise
# [8] = target: CXCL10_HUMAN (human), P02778; assay: as above; conditions: remark: other sources report otherwise
# Sequence of CXCL10_HUMAN (human), P02778 (P02778 22-98 limits assumed): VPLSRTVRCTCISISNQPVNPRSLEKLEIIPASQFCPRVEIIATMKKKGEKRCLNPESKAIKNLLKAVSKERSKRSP
Binder,Kd [1] [nM],Kd [2] [nM],Kd [3] [nM],Kd [4] [nM],Kd [5] [nM],Kd [6] [nM],Kd [7] [nM],Kd [8] [nM]
"P974_AMBCA, A0A023FDY8 22-118 (protein) ENTQQEEQDYDYGTDTCPFPVLANKTNKAKFVGCHQKCNGGDQKLTDGTACYVVERKVWDRMTPMLWYECPLGECKNGVCEDLRKKEDCRKGNGEEK",160,,,,,,,
"P546_AMBCA, A0A023FBW7 22-118 (protein) ENTQQEEEDYDYGTDTCPFPVLANKTNKAKFVGCHQKCNGGDQKLTDGTACYVVERKVWDRMTPMLWYSCPLGECKNGVCEDLRKKEECRKGNGEEK",,56,140,71,232,128,367,104
